Experimental data as given in patent publication US20050014242.

Experiments:
[1] = tested on: PFEK1-protease O-6×HIS (purified zymogen, not digested with EK)
[2] = tested on: CFEK2-prostasin-6×HIS (purified zymogen, not digested with EK)
[3] = tested on: PFEK1-protease MH2-6×HIS (purified zymogen, not digested with EK)
[4] = tested on: PFEK2-protease F-6×HIS (purified zymogen, not digested with EK)
[5] = tested on: PFEK2-prostasin-6×HIS (purified zymogen, not digested with EK)
[6] = tested on: PFEK1-neuropsin-6×HIS (purified zymogen, not digested with EK)

Chain of PFEK2-protease F-6×HIS (purified zymogen, not digested with EK) (chain, as listed by the source): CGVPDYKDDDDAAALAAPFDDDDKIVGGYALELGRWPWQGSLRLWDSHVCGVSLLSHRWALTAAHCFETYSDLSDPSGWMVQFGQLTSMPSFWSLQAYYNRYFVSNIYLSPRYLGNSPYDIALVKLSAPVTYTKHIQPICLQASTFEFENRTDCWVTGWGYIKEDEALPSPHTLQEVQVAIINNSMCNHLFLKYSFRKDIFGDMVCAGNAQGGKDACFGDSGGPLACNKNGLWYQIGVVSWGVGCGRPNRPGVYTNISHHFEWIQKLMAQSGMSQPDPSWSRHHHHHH
Chain of PFEK1-protease MH2-6×HIS (purified zymogen, not digested with EK) (chain, as listed by the source): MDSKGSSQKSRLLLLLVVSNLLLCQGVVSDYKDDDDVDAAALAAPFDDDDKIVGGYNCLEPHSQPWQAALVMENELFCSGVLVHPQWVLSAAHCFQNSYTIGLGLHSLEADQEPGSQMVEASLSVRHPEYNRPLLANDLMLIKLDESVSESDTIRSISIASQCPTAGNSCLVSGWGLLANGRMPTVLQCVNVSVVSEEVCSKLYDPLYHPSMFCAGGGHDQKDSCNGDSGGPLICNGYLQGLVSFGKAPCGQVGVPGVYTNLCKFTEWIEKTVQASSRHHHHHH

enterokinase
cleavage of the zymogen (SDS-PAGE and anti-FLAG Western blot) [1]: quantitative cleavage of the expressed and purified zymogen to generate the processed and activated protease | cleavage of the zymogen (SDS-PAGE and anti-FLAG Western blot) [2]: quantitative cleavage of the expressed and purified zymogen to generate the processed and activated protease | cleavage of the zymogen (SDS-PAGE and anti-FLAG Western blot) [3]: quantitative cleavage of the expressed and purified zymogen to generate the processed and activated protease | cleavage of the zymogen (SDS-PAGE and anti-FLAG Western blot) [4]: quantitative cleavage of the expressed and purified zymogen to generate the processed and activated protease | cleavage of the zymogen (SDS-PAGE and anti-FLAG Western blot) [5]: quantitative cleavage of the expressed and purified zymogen to generate the processed and activated protease | cleavage of the zymogen (SDS-PAGE and anti-FLAG Western blot) [6]: quantitative cleavage of the expressed and purified zymogen to generate the processed and activated protease
